Reference: patent US20090240036A1 (Eli Lilly, published 2009)

T1: Human IL-23 (heterodimer of p19 and p40 subunits) (human, UniProt P29460 23-328)
T1 sequence 1: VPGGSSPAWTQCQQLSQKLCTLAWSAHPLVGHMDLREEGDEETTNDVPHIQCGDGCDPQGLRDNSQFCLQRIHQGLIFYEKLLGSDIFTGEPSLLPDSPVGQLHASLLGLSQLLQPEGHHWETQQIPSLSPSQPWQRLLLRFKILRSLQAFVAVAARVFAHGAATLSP
T1 sequence 2: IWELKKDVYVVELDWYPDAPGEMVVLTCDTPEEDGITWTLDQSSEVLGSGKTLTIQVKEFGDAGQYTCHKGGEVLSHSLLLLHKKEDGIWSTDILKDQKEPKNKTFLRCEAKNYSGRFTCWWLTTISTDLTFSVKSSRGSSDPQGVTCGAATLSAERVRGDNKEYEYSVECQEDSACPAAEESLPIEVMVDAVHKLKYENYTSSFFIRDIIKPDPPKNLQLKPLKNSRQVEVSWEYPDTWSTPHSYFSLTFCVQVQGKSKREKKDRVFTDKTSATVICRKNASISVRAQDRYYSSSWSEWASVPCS


Assays:
[1] = molecular target: Human IL-23 (heterodimer of p19 and p40 subunits) (human) (UniProt P29460); assay: BIAcore SPR, antibody captured on protein A, human IL-23 flowed, HBS-EP pH 7.4, 25 C
[2] = molecular target: Human IL-23 (heterodimer of p19 and p40 subunits) (human) (UniProt P29460); assay: cell-based or functional assay
[3] = molecular target: T1, Human IL-23 (heterodimer of p19 and p40 …); assay: cell-based or functional assay
[4] = molecular target: T1, Human IL-23 (heterodimer of p19 and p40 …); assay: BIAcore SPR, antibody captured on protein A, human IL-23 flowed, HBS-EP pH 7.4, 25 C
Description: Affinities of MAb3A8 and antibodies of the present invention are determined using BIAcore measurements (Table 3). BIAcore™ is an automated biosensor system that measures molecular interactions. (Karlsson, et al. (1991) J. Immunol. Methods 145: 229-240). In these experiments antibody is captured to a surface at low density on a BIAcore™ chip. Ethyl-dimethylaminopropyl-carbodiimide (EDC) is used to couple reactive amino groups to protein A to a flow cell of a carboxy-methyl (CM5) BIAcore™ sensor chip. Protein A is diluted in sodium acetate buffer, pH 4.5, and immobilized on a flow cell of a CM5 chip using EDC to yield 1000 response units. Unreacted sites are blocked with ethanolamine. A flow rate of 60 μl/min is used. Multiple binding/elution cycles are performed by injection a 10 μl solution of 2 μg/mL of the antibodies of the present invention. followed by human IL-23 at decreasing concentrations for each cycle (e.g. 1500, 750, 375, 188, 94, 47, 23.5, 12, and 0 picomolar). Elution is performed with glycine-HCl, pH 1.5. BIAevaluation™ is used to analyze the kinetic data.

Kd [1] [nM] | koff [1] [s⁻¹] | kon [1] [M⁻¹ s⁻¹] | IC50 Measured in the Murine Splenocyte Assay [2] [nM] | IC50 Measured in the Murine Splenocyte Assay [3] [nM] | Kd [4] [nM] | koff [4] [s⁻¹] | kon [4] [M⁻¹ s⁻¹] | Molecule
21.4 | 0.000768 | 36800 | 2.8 |  |  |  |  | MAB1290, anti-human IL-23 monoclonal antibody, murine (R&D Systems)
 |  |  |  | 0.002 | 0.074 | 0.000115 | 1.55e+06 | MAbQF20 (antibody, human IgG1, kappa, V domains shown, Humanized antibody derived from MAb3A8) VH: QVQLVQSGAEVKKPGASVKVSCKVSGKTFWSYGINWVRQAPGKGLEWMGYIYIGTGYTEPNPKYKGRVTMTEDTSTDTAYMELSSLRSEDTAVYYCATIGGYYGNFADWGQGTTVTVSS VL: DVVMTQSPLSLPVTLGQPASISCRSSQSLLISGGKTYLNWFQQRPGQSPRRLIYLVSKLDQGVPDRFSGSGSGTDFTLKISRVEAEDVGVYYCWQGTYFPLTFGQGTKLEIKR
 |  |  |  | 0.002 | 0.098 | 0.000153 | 1.55e+06 | MAbQF37 (antibody, human IgG1, kappa, V domains shown, Humanized antibody derived from MAb3A8) VH: QVQLVQSGAEVKKPGASVKVSCKVSGKTFWSYGINWVRQAPGKGLEWMGYIYIGTGYTEPNPKYKGRVTMTEDTSTDTAYMELSSLRSEDTAVYYCATIGGYYGNFDQWGQGTTVTVSS VL: DVVMTQSPLSLPVTLGQPASISCRSSQSLLISGGKTYLNWFQQRPGQSPRRLIYLVSKLDQGVPDRFSGSGSGTDFTLKISRVEAEDVGVYYCWQGTYFPLTFGQGTKLEIKR
